In article PMC11210195 (2024) one finds koff data, which are given here for one molecule.

For experiment [1], the target named is mAb1 WT (human IgG1 Fc WT) (human, UniProt P01857 = IgG part). Description: SPR.
A further experiment concerns the target mAb1 WT-AAA (human, UniProt P01857 = IgG part). In words: SPR.

B1: TRIM21 PRYSPRY domain (domain or fragment)
chain: GLKKMLRTCAVHITLDPDTANPWLILSEDRRQVRLGDTQQSIPGNEERFDSYPMVLGAQHFHSGKHYWEVDVTGKEAWDLGVCRDSVRRKGHFLLSSKSGFWTIWLWNKQKYEAGTYPQTPLHLQVPPCQVGIFLDYEAGMVSFYNITDHGSLIYSFSECAFTGPLRPFFSPGFNDGGKNTAPLTLCPLNIGSQGSTDY
modifications: biotinylated where it was captured via monovalent streptavidin
With B1, the koff in experiment [1] was found to be 0.0994 s⁻¹; with mAb1 WT-AAA, 0.105 s⁻¹.

The koff is the first-order rate constant of dissociation. A higher koff goes with fast dissociation.
